Measured values reported in patent US20200071424A1 (SHIONOGI, published 2020).

T1: human [1-305]-mouse chimeric EL (human; mouse, UniProt Q9WVG5 306-500)
T1 construct: Heparin extract, captured or detected by an anti-C2-tag antibody; also called human-mouse chimeric EL
T1 sequence: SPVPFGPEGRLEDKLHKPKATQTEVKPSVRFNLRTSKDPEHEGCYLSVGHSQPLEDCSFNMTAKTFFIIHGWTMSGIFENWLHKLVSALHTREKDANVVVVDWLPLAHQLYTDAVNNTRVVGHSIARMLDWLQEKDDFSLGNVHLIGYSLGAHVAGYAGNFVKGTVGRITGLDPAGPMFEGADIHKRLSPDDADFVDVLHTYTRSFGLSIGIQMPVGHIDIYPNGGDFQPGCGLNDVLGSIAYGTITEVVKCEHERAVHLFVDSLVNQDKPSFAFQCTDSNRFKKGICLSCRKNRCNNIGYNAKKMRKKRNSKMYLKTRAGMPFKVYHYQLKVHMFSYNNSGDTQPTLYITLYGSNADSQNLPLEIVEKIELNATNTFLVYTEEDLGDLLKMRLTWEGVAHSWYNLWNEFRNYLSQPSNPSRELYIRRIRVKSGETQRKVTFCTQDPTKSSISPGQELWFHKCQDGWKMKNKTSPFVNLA


Columns and labels:
[1] = molecular target: T1, human [1-305]-mouse chimeric EL; assay: Biacore; EL captured by anti-C2-tag Ab; bivalent fit
Description: The binding affinities of anti-EL antibodies were measured using Biacore. […] Then, anti-EL humanized antibodies were added and the binding affinities were calculated by bivalent fitting of BIAevaluation software.

[2] = molecular target: T1, human [1-305]-mouse chimeric EL; assay: cell-based or functional assay

Binder | Kd [1] | koff [1] | kon [1] | Neutralizing activity IC50 [2]
h55A1-F5 (antibody, V domains shown, humanized) VH: QVQLVQSGAEVKKPGASVKVSCKASGYTFTNYGMNWVRQAPGQGLEWMGWINTYSGVPTYAGDFKGRFTFTLDTSTSTAYMELSSLRSEDTAVYYCARRGYYGRRYFDVWGKGTTVTVSS VL: DIQLTQSPSSLSASVGDRVTITCKASQSVDYDVDSYMHWYQQKPGKAPKLLIYAASNLASGVPSRFSGSGSGTDFTLTISSLQPEDFATYYCQQTIEDPPTFGGGTKVEIK | 0.11 nM | 1.6e-05 s⁻¹ | 140000 M⁻¹ s⁻¹ | 1.3 nM
h55A1-F2 (antibody, V domains shown, humanized) VH: QVQLVQSGAEVKKPGASVKVSCKASGYTFTNYGMNWVRQAPGQGLEWMGWINTYSGVPTYAGDFKGRVTMTTDTSTSTAYMELRSLRSDDTAVYYCARRGYYGRRYFDVWGKGTTVTVSS VL: EIVMTQSPATLSVSPGERATLSCKASQSVDYDVDSYMHWYQQKPGQAPRLLIYAASNLASGIPARFSGSGSGTEFTLTISSLQSEDFAVYYCQQTIEDPPTFGGGTKVEIK | 0.17 nM | 2.6e-05 s⁻¹ | 160000 M⁻¹ s⁻¹ | 2.1 nM
h55A1-F1 (antibody, V domains shown, humanized) VH: QVQLVQSGSELKKPGASVKVSCKASGYTFTNYGMNWVRQAPGQGLEWMGWINTYSGVPTYAGDFKGRFVFSLDTSVSTAYLQISSLKAEDTAVYYCARRGYYGRRYFDVWGKGTTVTVSS VL: DIQLTQSPSSLSASVGDRVTITCKASQSVDYDVDSYMHWYQQKPGKAPKLLIYAASNLASGVPSRFSGSGSGTDFTFTISSLQPEDIATYYCQQTIEDPPTFGGGTKVEIK | 0.084 nM | 1.7e-05 s⁻¹ | 200000 M⁻¹ s⁻¹ | 1.9 nM
h55A1-F3 (antibody, V domains shown, humanized) VH: QVQLVQSGAEVKKPGASVKVSCKASGYTFTNYGMNWVRQAPGQGLEWMGWINTYSGVPTYAGDFKGRVTMTTDTSTSTAYMELRSLRSDDTAVYYCARRGYYGRRYFDVWGKGTTVTVSS VL: DIQLTQSPSSLSASVGDRVTITCKASQSVDYDVDSYMHWYQQKPGKAPKLLIYAASNLASGVPSRFSGSGSGTDFTLTISSLQPEDFATYYCQQTIEDPPTFGGGTKVEIK | 0.29 nM | 3.3e-05 s⁻¹ | 110000 M⁻¹ s⁻¹ | 1.1 nM
h55A1-F6 (antibody, V domains shown, humanized) VH: QVQLVQSGAEVKKPGASVKVSCKASGYTFTNYGMNWVRQAPGQGLEWMGWINTYSGVPTYAGDFKGRFTFTLDTSTSTAYMELSSLRSEDTAVYYCARRGYYGRRYFDVWGKGTTVTVSS VL: EIVMTQSPATLSVSPGERATLSCKASQSVDYDVDSYMHWYQQKPGQAPRLLIYAASNLASGIPARFSGSGSGTEFTLTISSLQSEDFAVYYCQQTIEDPPTFGGGTKVEIK | 0.3 nM | 4.8e-05 s⁻¹ | 160000 M⁻¹ s⁻¹ | 2.3 nM
h55A1-F4 (antibody, V domains shown, humanized) VH: QVQLVQSGAEVKKPGASVKVSCKASGYTFTNYGMNWVRQAPGQGLEWMGWINTYSGVPTYAGDFKGRVTMTTDTSTSTAYMELRSLRSDDTAVYYCARRGYYGRRYFDVWGKGTTVTVSS VL: EIVLTQSPGTLSLSPGERATLSCKASQSVDYDVDSYMHWYQQKPGQAPRLLIYAASNLASGIPDRFSGSGSGTDFTLTISRLEPEDFAVYYCQQTIEDPPTFGGGTKVEIK | 0.22 nM | 3e-05 s⁻¹ | 140000 M⁻¹ s⁻¹ | 2.4 nM
h16B3-F3 (antibody, V domains shown, humanized) VH: EVQLVESGGGLVQPGGSLRLSCAASGFTFSGYTMSWVRQAPGKGLEWVSEISFARDRAFYPDTVKGRFTISRDNSKNTLYLQMNSLRAEDTAVYYCARLGGRNHDYWYFDVWGQGTTVTVSS VL: EIVLTQSPGTLSLSPGERATLSCRASESVEYYGTSLMQWYQQKPGQAPRLLIYAASNVESGIPDRFSGSGSGTDFTLTISRLEPEDFAVYYCQQSWKVPFTFGQGTKLEIK | 10 nM | 0.0002 s⁻¹ | 19000 M⁻¹ s⁻¹ | 2 nM
